In one data set the target is T1, human SEP (Homo sapiens, UniProt Q495T6).
T1 construct: The full length human SEP clone was termed MSSE82; made in house; host or cells: CHO cells transfected with plasmid MSSE82; dialysed culture medium used as enzyme
T1 sequence (Q495T6 75-779 limits assumed): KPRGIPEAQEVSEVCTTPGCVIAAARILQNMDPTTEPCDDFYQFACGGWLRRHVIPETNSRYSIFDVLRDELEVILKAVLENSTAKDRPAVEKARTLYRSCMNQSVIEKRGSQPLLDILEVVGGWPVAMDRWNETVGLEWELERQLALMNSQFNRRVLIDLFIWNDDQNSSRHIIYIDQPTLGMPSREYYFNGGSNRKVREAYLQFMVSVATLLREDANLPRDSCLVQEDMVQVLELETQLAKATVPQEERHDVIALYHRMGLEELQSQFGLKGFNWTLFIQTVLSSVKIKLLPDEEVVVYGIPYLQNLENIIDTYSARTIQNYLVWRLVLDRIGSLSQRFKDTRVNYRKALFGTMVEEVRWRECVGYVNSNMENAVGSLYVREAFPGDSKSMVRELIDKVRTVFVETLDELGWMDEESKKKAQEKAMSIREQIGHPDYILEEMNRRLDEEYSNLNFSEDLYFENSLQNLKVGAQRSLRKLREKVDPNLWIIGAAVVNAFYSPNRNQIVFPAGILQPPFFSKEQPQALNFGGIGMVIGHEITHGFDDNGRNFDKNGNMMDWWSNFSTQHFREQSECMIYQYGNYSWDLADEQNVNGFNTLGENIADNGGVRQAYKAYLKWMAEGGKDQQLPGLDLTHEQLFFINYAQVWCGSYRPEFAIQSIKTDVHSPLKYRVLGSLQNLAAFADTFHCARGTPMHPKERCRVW
The data set can be described thus: human SEP activity, sensitivity to inhibitors. It is filed as biochemical. As for the experimental part: The enzymatic (proteolytic) activity of human SEP protein can be measured in an assay involving, for example, mixing a sample of the human SEP enzyme with a substrate peptide in a buffer solution (for example 50 mM HEPES; pH 7.4), incubating the mixture for a period of time (such as 1-3 hours) enough for human SEP to act to cleave a measurable portion of the peptide substrate to a product at a temperature suitable for SEP activity (typically 30-37° C.).
The effect of candidate human SEP inhibitor compounds or control test compounds such as phosphoramidon and thiorphan that may alter the activity of human SEP can be measured in this type of assay by including them in the initial mixture at a range of suitable test concentrations, typically 0.1 nM to 50 μM.
To determine the IC50 of SEP inhibitors (SEPi; for example, phosphoramidon), multiple SEP assays are performed as described above with a range of test concentrations of inhibitor included in the 50 μl of DMSO solution (made by appropriate dilution of a 10 mM 100% DMSO stock of inhibitor with 4% DMSO/50 mM HEPES pH7.4.). Using a suitable standard graph fitting computer program, a sigmoidal dose response curve is fitted to a plot of log inhibitor concentration versus MaxV (or % inhibition or % activity). The IC50 is calculated as the inhibitor concentration causing 50% maximal inhibition. […]

The next data set has as its target T2, mouse SEP (Mus musculus, UniProt Q9JLI3).
T2 sequence (Q9JLI3 1-765): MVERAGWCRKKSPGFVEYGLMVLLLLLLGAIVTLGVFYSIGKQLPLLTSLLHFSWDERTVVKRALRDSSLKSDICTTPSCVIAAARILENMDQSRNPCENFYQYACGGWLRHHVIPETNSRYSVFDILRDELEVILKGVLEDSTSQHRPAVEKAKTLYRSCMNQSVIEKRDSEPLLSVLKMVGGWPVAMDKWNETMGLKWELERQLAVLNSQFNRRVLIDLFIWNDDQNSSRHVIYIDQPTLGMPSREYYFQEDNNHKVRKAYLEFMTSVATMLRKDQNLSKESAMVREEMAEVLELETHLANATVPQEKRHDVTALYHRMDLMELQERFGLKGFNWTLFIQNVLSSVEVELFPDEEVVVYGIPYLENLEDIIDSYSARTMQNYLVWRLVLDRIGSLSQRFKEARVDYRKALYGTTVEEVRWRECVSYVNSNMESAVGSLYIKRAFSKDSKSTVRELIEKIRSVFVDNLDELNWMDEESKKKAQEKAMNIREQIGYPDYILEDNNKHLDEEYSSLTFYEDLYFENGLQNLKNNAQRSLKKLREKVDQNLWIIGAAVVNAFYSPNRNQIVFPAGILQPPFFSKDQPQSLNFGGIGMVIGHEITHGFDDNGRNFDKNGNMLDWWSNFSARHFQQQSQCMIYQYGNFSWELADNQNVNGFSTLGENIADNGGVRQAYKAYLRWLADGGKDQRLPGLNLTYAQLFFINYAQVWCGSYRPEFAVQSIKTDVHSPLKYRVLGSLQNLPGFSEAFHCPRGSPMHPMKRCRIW
The following applies: cited from earlier work.

For data set [1], the target named is T3, Recombinant human NEP enzyme (Homo sapiens, UniProt P08473).
T3 construct: made in house; host or cells: Pichia pastoris
Nature of the data set: NEP FRET assay (384 well, homogeneous). To be noted: steady state kinetics of NEP enzyme with the peptide substrate. It is filed as biochemical. As for the experimental part: All assays were conducted in 384 well black, flat bottom plates, purchased from Matrix Technologies Ltd. (Cheshire, UK).
Compounds for screening were supplied as singles at 40 μM in 1% DMSO to achieve a final screening concentration of 10 μM.
The peptide substrate (Rhodamine green-Gly-Gly-dPhe-Leu-Arg-Arg-Val-Cys(QSY™7)-βAla-NH2) (SEQ ID NO: 8) was made as described above and labelled with fluorophores purchased from Molecular Probes, Inc. All other reagents were purchased from Sigma/Aldrich (Poole, Dorset, UK).
Recombinant human NEP enzyme was expressed using Pichia pastoris and purified to homogeneity using a three-step purification procedure.
All assays were performed in 50 mM Hepes buffer pH 8, 0.1% v/v pluronic-F127 and 1% v/v protease inhibitor cocktail (antipain, aprotinin, leupeptin, pepstatin A). 10 μl of compound in 1% DMSO was added to each well, followed by 20 μl of recombinant enzyme (10 nM final concentration). The reaction was initiated by the addition of 10 μl of substrate (1 μM final concentration) and plates were incubated at 25° C. for one hour. Termination of the reaction was achieved by the addition of 20 μl of Stop (excess of a known inhibitor) to a concentration of 10 μM in the well. Plates were counted using Tecan Ultra (485 nm excitation, 535 nm emission; Tecan Austria, Salzburg, Austria). […]

Data set [2] deals with T4, Rhodamine green-Gly-Gly-dPhe-Leu-Arg-Arg-Val-Cys(QSY7)-betaAla-NH2.
T4 chain: GGFLRRVCA

[ ]: non-standard residue; d: D form. QSY7 = QSY-7 (maleimide) on Cys; βAla = NCCC(=O)O

T3 sequence (P08473 whole entry): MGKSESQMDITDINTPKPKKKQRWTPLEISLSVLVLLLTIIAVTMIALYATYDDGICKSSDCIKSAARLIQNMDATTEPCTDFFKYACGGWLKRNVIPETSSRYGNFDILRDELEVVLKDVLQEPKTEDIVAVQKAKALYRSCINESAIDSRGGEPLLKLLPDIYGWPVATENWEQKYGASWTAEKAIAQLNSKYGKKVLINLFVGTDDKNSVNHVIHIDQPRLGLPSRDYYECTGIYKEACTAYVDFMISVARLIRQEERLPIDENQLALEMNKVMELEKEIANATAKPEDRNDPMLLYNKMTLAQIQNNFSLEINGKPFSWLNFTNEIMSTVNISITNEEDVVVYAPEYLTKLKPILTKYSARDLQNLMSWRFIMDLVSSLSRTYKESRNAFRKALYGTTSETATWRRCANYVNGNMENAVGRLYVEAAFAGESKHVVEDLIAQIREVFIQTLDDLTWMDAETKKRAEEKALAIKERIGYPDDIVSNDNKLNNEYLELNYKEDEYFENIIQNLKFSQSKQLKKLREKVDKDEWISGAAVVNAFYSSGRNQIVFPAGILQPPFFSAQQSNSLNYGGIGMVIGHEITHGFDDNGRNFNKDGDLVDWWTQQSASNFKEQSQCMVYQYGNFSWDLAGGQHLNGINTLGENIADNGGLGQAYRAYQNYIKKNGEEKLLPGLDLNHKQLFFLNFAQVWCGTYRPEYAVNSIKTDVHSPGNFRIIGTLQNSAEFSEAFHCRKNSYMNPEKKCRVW

In the case of `CC(C)C[C@H](NP(=O)(O)O[C@@H]1O[C@@H](C)[C@H](O)[C@@H](O)[C@H]1O)C(=O)N[C@@H](Cc1c[nH]c2ccccc12)C(=O)O` [phosphoramidon], on human SEP, the “sensitivity of human SEP to inhibitor” value is given as “sensitive”. In addition, the “sensitivity of mouse SEP to inhibitor” value on mouse SEP is reported as “sensitive”.

Take `O=C(O)CNC(=O)C(CS)Cc1ccccc1` (centres unmarked) [thiorphan]: the “sensitivity of human SEP to inhibitor” value on human SEP was “sensitive”. Also, at mouse SEP, the “sensitivity of mouse SEP to inhibitor” value was “sensitive”.

By Km is commonly meant the concentration of substrate that gives half-maximal velocity. In the case of “Rhodamine green-Gly-Gly-dPhe-Leu-Arg-Arg-Val-Cys(QSY™7)-βAla-NH2 ({Rhodamine green}-GG[dF]LRRVC(QSY7)[βAla]-NH2) [CP4]”, in data set [1], the Kcat turned out to be 0.083 s⁻¹. In addition, the Michaelis-Menten constant (Km) in data set [1] (50 mM Hepes pH 8, 25° C.) is 8 µM.

B1: Recombinant human NEP enzyme (neutral endopeptidase, neprilysin, EC 3.4.24.11) (protein)
chain: DDGICKSSDCIKSAARLIQNMDATTEPCTDFFKYACGGWLKRNVIPETSSRYGNFDILRDELEVVLKDVLQEPKTEDIVAVQKAKALYRSCINESAIDSRGGEPLLKLLPDIYGWPVATENWEQKYGASWTAEKAIAQLNSKYGKKVLINLFVGTDDKNSVNHVIHIDQPRLGLPSRDYYECTGIYKEACTAYVDFMISVARLIRQEERLPIDENQLALEMNKVMELEKEIANATAKPEDRNDPMLLYNKMTLAQIQNNFSLEINGKPFSWLNFTNEIMSTVNISITNEEDVVVYAPEYLTKLKPILTKYSARDLQNLMSWRFIMDLVSSLSRTYKESRNAFRKALYGTTSETATWRRCANYVNGNMENAVGRLYVEAAFAGESKHVVEDLIAQIREVFIQTLDDLTWMDAETKKRAEEKALAIKERIGYPDDIVSNDNKLNNEYLELNYKEDEYFENIIQNLKFSQSKQLKKLREKVDKDEWISGAAVVNAFYSSGRNQIVFPAGILQPPFFSAQQSNSLNYGGIGMVIGHEITHGFDDNGRNFNKDGDLVDWWTQQSASNFKEQSQCMVYQYGNFSWDLAGGQHLNGINTLGENIADNGGLGQAYRAYQNYIKKNGEEKLLPGLDLNHKQLFFLNFAQVWCGTYRPEYAVNSIKTDVHSPGNFRIIGTLQNSAEFSEAFHCRKNSYMNPEKKCRVW
Take B1: in data set [2], the Kcat was 0.083 s⁻¹; the Kcat/Km is 10,500 M^-1 S^-1; the Michaelis constant (Km) is 8 µM; the “cleavage of the FRET substrate, monitored by fluorescence” value is “CP4 is cleaved by endopeptidases NEP or SEP, creating the cleavage product Rhodamine green-Gly-Gly-dPhe-Leu-Arg-Arg-OH”.

B2: human soluble secreted endopeptidase (human SEP), recombinant (protein)
chain: RKPRGIPEAQEVSEVCTTPGCVIAAARILQNMDPTTEPCDDFYQFACGGWLRRHVIPETNSRYSIFDVLRDELEVILKAVLENSTAKDRPAVEKARTLYRSCMNQSVIEKRGSQPLLDILEVVGGWPVAMDRWNETVGLEWELERQLALMNSQFNRRVLIDLFIWNDDQNSSRHIIYIDQPTLGMPSREYYFNGGSNRKVREAYLQFMVSVATLLREDANLPRDSCLVQEDMVQVLELETQLAKATVPQEERHDVIALYHRMGLEELQSQFGLKGFNWTLFIQTVLSSVKIKLLPDEEVVVYGIPYLQNLENIIDTYSARTIQNYLVWRLVLDRIGSLSQRFKDTRVNYRKALFGTMVEEVRWRECVGYVNSNMENAVGSLYVREAFPGDSKSMVRELIDKVRTVFVETLDELGWMDEESKKKAQEKAMSIREQIGHPDYILEEMNRRLDEEYSNLNFSEDLYFENSLQNLKVGAQRSLRKLREKVDPNLWIIGAAVVNAFYSPNRNQIVFPAGILQPPFFSKEQPQALNFGGIGMVIGHEITHGFDDNGRNFDKNGNMMDWWSNFSTQHFREQSECMIYQYGNYSWDLADEQNVNGFNTLGENIADNGGVRQAYKAYLKWMAEGGKDQQLPGLDLTHEQLFFINYAQVWCGSYRPEFAIQSIKTDVHSPLKYRVLGSLQNLAAFADTFHCARGTPMHPKERCRVW
Turning to B2, the “cleavage of the FRET substrate, monitored by fluorescence” value in data set [2] was “CP4 is cleaved by endopeptidases NEP or SEP, creating the cleavage product Rhodamine green-Gly-Gly-dPhe-Leu-Arg-Arg-OH”.

The record behind these values is patent publication US20040014131A1, “Assay methods” (Pfizer Inc., priority 2002, published 2004).
